# Assay results published in US20230348540A1 (UNIVERSITY OF COPENHAGEN, published 2023).
# Ends that are not written are not given here. * marks the point of attachment. Biotin = O=C1N[C@H]2[C@H](CS[C@H]2CCCCC(=O)*)N1; Ahx = NCCCCCC(=O)O
# B1: SNTANRRTTPV (peptide)
# peptide: SNTANRRTTPV
# notes: also called Stg; RRTTPV monomer
# B2: CC-Hex2-GS4-HWLKV (peptide)
# peptide: {Biotin-Ahx}-GEIAKSLKEIAKSLKEIAWSLKEIAKSLKGGGGSHWLKV
# notes: also called CC-hex-GS4-HWLKV
# B3: GCN4p1-GS4-GS4 (non-binding control peptide) (peptide)
# peptide: not shown
# modifications: N-terminal biotin joined through 6-aminohexanoic acid (Ahx)
# notes: also called biotin-Ahx-GCN4p1-GS4-GS4; biotin-Ahx-GCN4p1-GS-GS
# B4: NYIRV (peptide)
# peptide: NYIRV
# notes: also called DAT-C5 variant
# B5: TSVIV (peptide)
# peptide: TSVIV
# notes: also called DAT-C5 variant
# B6: FSIIV (peptide)
# peptide: FSIIV
# notes: also called DAT-C5 variant
# B7: FEVRV (peptide)
# peptide: FEVRV
# notes: also called DAT-C5 variant
# B8: NEIIV (peptide)
# peptide: NEIIV
# notes: also called DAT-C5 variant
# B9: NEVRV (peptide)
# peptide: NEVRV
# notes: also called DAT-C5 variant
# B10: FYIRV (peptide)
# peptide: FYIRV
# notes: also called DAT-C5 variant
# B11: TYIIV (peptide)
# peptide: TYIIV
# notes: also called DAT-C5 variant
# B12: TEVIV (peptide)
# peptide: TEVIV
# notes: also called DAT-C5 variant
# B13: FEVIV (peptide)
# peptide: FEVIV
# notes: also called DAT-C5 variant
# B14: FYVIV (peptide)
# peptide: FYVIV
# notes: also called DAT-C5 variant
# B15: NSVIV (peptide)
# peptide: NSVIV
# notes: also called DAT-C5 variant
# B16: FSVRV (peptide)
# peptide: FSVRV
# notes: also called DAT-C5 variant
# B17: FYVRV (peptide)
# peptide: FYVRV
# notes: also called DAT-C5 variant
# B18: TYVRV (peptide)
# peptide: TYVRV
# notes: also called DAT-C5 variant
# B19: NYVRV (peptide)
# peptide: NYVRV
# notes: also called DAT-C5 variant
# B20: TYVIV (peptide)
# peptide: TYVIV
# notes: also called DAT-C5 variant
# B21: NSIRV (peptide)
# peptide: NSIRV
# notes: also called DAT-C5 variant
# B22: FYIIV (peptide)
# peptide: FYIIV
# notes: also called DAT-C5 variant
# B23: TYIRV (peptide)
# peptide: TYIRV
# notes: also called DAT-C5 variant
# B24: FEIIV (peptide)
# peptide: FEIIV
# notes: also called DAT-C5 variant
# B25: NYIIV (peptide)
# peptide: NYIIV
# notes: also called DAT-C5 variant
# B26: TEVRV (peptide)
# peptide: TEVRV
# notes: also called DAT-C5 variant
# B27: FSIRV (peptide)
# peptide: FSIRV
# notes: also called DAT-C5 variant
# B28: NEIRV (peptide)
# peptide: NEIRV
# notes: also called DAT-C5 variant
# B29: NSIIV (peptide)
# peptide: NSIIV
# notes: also called DAT-C5 variant
# B30: NYVIV (peptide)
# peptide: NYVIV
# notes: also called DAT-C5 variant
# B31: TSIRV (peptide)
# peptide: TSIRV
# notes: also called DAT-C5 variant
# B32: TSIIV (peptide)
# peptide: TSIIV
# notes: also called DAT-C5 variant
# B33: TEIRV (peptide)
# peptide: TEIRV
# notes: also called DAT-C5 variant
# B34: FEIRV (peptide)
# peptide: FEIRV
# notes: also called DAT-C5 variant
# B35: NSVRV (peptide)
# peptide: NSVRV
# notes: also called DAT-C5 variant
# B36: EVIV (peptide)
# peptide: EVIV
# notes: also called DAT-C5 variant
# B37: YVRV (peptide)
# peptide: YVRV
# notes: also called DAT-C5 variant
# B38: SVIV (peptide)
# peptide: SVIV
# notes: also called DAT-C5 variant
# B39: SVRV (peptide)
# peptide: SVRV
# notes: also called DAT-C5 variant
# B40: EIIV (peptide)
# peptide: EIIV
# notes: also called DAT-C5 variant
# B41: YIIV (peptide)
# peptide: YIIV
# notes: also called DAT-C5 variant
# B42: YVIV (peptide)
# peptide: YVIV
# notes: also called DAT-C5 variant
# B43: EIRV (peptide)
# peptide: EIRV
# notes: also called DAT-C5 variant
# B44: SIIV (peptide)
# peptide: SIIV
# notes: also called DAT-C5 variant
# B45: YIRV (peptide)
# peptide: YIRV
# notes: also called DAT-C5 variant
# B46: EVRV (peptide)
# peptide: EVRV
# notes: also called DAT-C5 variant
# B47: CC-Hex2-GS4-NSVRV (peptide)
# peptide: {Biotin-Ahx}-GEIAKSLKEIAKSLKEIAWSLKEIAKSLKGGGGSNSVRV
# B48: CC-Hex2-GS4-RRTTPV (peptide)
# peptide: {Biotin-Ahx}-GEIAKSLKEIAKSLKEIAWSLKEIAKSLKGGGGSRRTTPV
# B49: CC-Hex2-GS4-IETDV (peptide)
# peptide: {Biotin-Ahx}-GEIAKSLKEIAKSLKEIAWSLKEIAKSLKGGGGSIETDV
# B50: CC-Tet-GS4-HWLKV (peptide)
# peptide: {Biotin-Ahx}-GELAAIKQELAAIKKELAAIKWELAAIKQGGGGSHWLKV
# notes: also called CC-tet2-GS4-HWLKV
# Legend:
# [1] = target: T1, TRX-6xHis-hPSD95 1-724 (full length human PSD-95) (human, UniProt P78352 1-724, Alexa488 label in the confocal experiment of Example 5 only); experiment: SDS-PAGE sedimentation assay
# T1 construct: range 1-724; Purified by HisTrap and SEC; also called FL-PSD-95; not shown: TRX-6xHis tag encoded by the pET-MG-3C plasmid
# [2] = target: T2, Full length rat PICK1 (Protein Interacting with C Kinase-1) (rat, UniProt Q9EP80 1-416); experiment: FP competition, tracer 5-FAM-(HWLKV)2 10 nM, PICK1 (Example 8)
# T2 construct: mature; Residues left by the cleaved tag are not described; also called purified PICK1
# Experimental: The plates were incubated 30-40 min on ice and the fluorescence polarization was measured on an Omega POLARstar plate (BMG LABTECH) reader using excitation filter at 485 nm and long pass emission filter at 520 nm. The data was plotted using GraphPad Prism 8.3, and fitted to the ‘One site—Fit’ Kᵢ competition curve, to extract apparent KI values.
# [3] = target: T3, nNOS protein in mouse spinal cord lysate (mouse, UniProt Q9Z0J4 1-1429, limits assumed); experiment: pull-down with biotinylated peptide on streptavidin beads from mouse spinal cord lysate, western blot [D]
# T3 construct: Endogenous protein, detected by Western blot after pull-down
# [4] = target: T4, PICK1 protein in mouse spinal cord lysate (mouse, UniProt Q62083 1-416); experiment: as above
# T4 construct: Endogenous protein, detected by Western blot after pull-down
# [5] = target: T5, PSD-95 protein in mouse spinal cord lysate (mouse, UniProt Q62108 1-724, limits assumed); experiment: as above
# T5 construct: Endogenous protein, detected by Western blot after pull-down
# [6] = target: T2, Full length rat PICK1 (Protein …); experiment: FP competition on purified PICK1, tracer 5FAM-HWLKV 20 nM; fold change against HWLKV [panel 1 from the left]
# [7] = target: T2, Full length rat PICK1 (Protein …); experiment: FP competition on purified PICK1, tracer 5FAM-HWLKV 20 nM; fold change against HWLKV [panel 2 from the left]
# [8] = target: T2, Full length rat PICK1 (Protein …); experiment: FP competition on purified PICK1, tracer 5FAM-HWLKV 20 nM; fold change against HWLKV [panel 3 from the left]
# [9] = target: T2, Full length rat PICK1 (Protein …); experiment: FP competition on purified PICK1, tracer 5FAM-HWLKV 20 nM; fold change against HWLKV [panel 4 from the left]
# [10] = target: T2, Full length rat PICK1 (Protein …); experiment: FP competition on purified PICK1, tracer 5FAM-HWLKV 20 nM; fold change against HWLKV [panel 5 from the left]
# [11] = target: T2, Full length rat PICK1 (Protein …); experiment: FP competition (FIG. 17C)
# PSD-95 PDZ1-2 = target: T6, PSD-95 PDZ1-2 (UniProt P78352 61-249, limits assumed); experiment: FP competition, tracer 5-FAM-(IETAV)2 5 nM, PSD-95 PDZ12 0.15 µM
# T6 construct: domain: PDZ1-2
# Description: FIG. 18: Fluorescence polarization competition binding curves for the unlabelled peptides. […] Data expressed as mean±SEM (n=3).
# The data was plotted using GraphPad Prism 8.3, and fitted to the ‘One site—Fit’ Kᵢ competition curve, to extract apparent KI values.
binder,measurement,setting,value
B1,binding result,[1],binds
B2,Ki,[2],22.9 nM
B3,binding result,[3],no binding
same,binding result,[4],no binding
same,binding result,[5],no binding
B4,binding result,[6],binds
B5,binding result,[7],binds
B6,binding result,[8],binds
B7,binding result,[9],binds
B8,binding result,[6],binds
B9,binding result,[6],binds
B10,binding result,[9],binds
B11,binding result,[8],binds
B12,binding result,[7],binds
B13,binding result,[9],binds
B14,binding result,[9],binds
B15,binding result,[6],binds
B16,binding result,[8],binds
B17,binding result,[9],binds
B18,binding result,[8],binds
B19,binding result,[7],binds
B20,binding result,[8],binds
B21,binding result,[6],binds
B22,binding result,[9],binds
B23,binding result,[8],binds
B24,binding result,[8],binds
B25,binding result,[6],binds
B26,binding result,[7],binds
B27,binding result,[8],binds
B28,binding result,[6],binds
B29,binding result,[6],binds
B30,binding result,[7],binds
B31,binding result,[7],binds
B32,binding result,[7],binds
B33,binding result,[7],binds
B34,binding result,[8],binds
B35,binding result,[6],binds
B36,binding result,[10],binds
B37,binding result,[10],binds
B38,binding result,[9],binds
B39,binding result,[9],binds
B40,binding result,[9],binds
B41,binding result,[10],binds
B42,binding result,[10],binds
B43,binding result,[10],binds
B44,binding result,[9],binds
B45,binding result,[10],binds
B46,binding result,[10],binds
B47,binding result,[11],binds
B48,Ki,PSD-95 PDZ1-2,242 nM
B49,Ki,PSD-95 PDZ1-2,56 nM
B50,Ki,[2],2.47 nM
